Results on six molecules are retold here after paper PMC10771500, “Ton motor conformational switch and peptidoglycan role in bacterial nutrient uptake” (Nature Communications, 2024).

First the molecules themselves.
B1: ExbD construct from E. coli lacking the N-terminal residues 43-60 (ExbD^(Ec, ΔNIBS)) (domain or fragment, Escherichia coli, UniProt P0ABV2 61-141, looked up)
chain: EKPVYLSVKADNSMFIGNDPVTDETMITALNALTEGKKDTTIFFRADKTVDYETLMKVMDTLHQAGYLKIGLVGEETAKAK
notes: ExbD of Escherichia coli, periplasmic domain (43-141) lacking the N-terminal residues 43-60; the limits 61-141 are worked out from these two statements; not shown: His-tag, N-terminal, cleaved
B4: periplasmic domain of ExbD from Escherichia coli, residues 43-141 (ExbD^(Ec, peri)) (domain or fragment, UniProt P0ABV2 43-141, looked up)
chain: VDVKVNLPASTSTPQPRPEKPVYLSVKADNSMFIGNDPVTDETMITALNALTEGKKDTTIFFRADKTVDYETLMKVMDTLHQAGYLKIGLVGEETAKAK
notes: ExbD of Escherichia coli, periplasmic domain, residues 43-141; not shown: His-tag, N-terminal, cleaved

Series [1] deals with the molecule itself. The experiment in a line: crystal structure; 2 mM ExbD^(Ec, ΔNIBS) with 10 mM TonB peptide in 50 mM Tris-HCl, 50 mM NaCl, pH 7.0; crystals in 10% w/v glycerol and 3 M ammonium sulfate, 18 °C; 1.5 Å.
Series [2] concerns the molecule itself. Description: AUC; sedimentation velocity, 100 μM ExbD alone, 42000 rpm overnight, 50 mM sodium phosphate, 50 mM NaCl, pH 7.0; c(S) model in SEDFIT.
The target of series [3] is T1, periplasmic part of HasB from Serratia marcescens, residues 37-263 (HasB^(Sm, peri)) (Serratia marcescens, UniProt Q79AD1 37-263).
T1 construct: HasB, the TonB paralog of the Heme Acquisition System of Serratia marcescens, residues 37-263; 15N-labelled in the NMR experiment; also called HasB_(37-263, Sm); source: bacterial expression (20 h at 30 °C), purified (cation exchange, SEC)
T1 sequence (looked up): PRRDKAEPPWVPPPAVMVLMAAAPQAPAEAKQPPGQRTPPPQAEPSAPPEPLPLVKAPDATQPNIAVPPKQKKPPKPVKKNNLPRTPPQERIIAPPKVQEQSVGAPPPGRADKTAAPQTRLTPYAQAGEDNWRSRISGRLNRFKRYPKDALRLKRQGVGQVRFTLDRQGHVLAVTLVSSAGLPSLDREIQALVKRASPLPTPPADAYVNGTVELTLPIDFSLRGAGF
Description: NMR titration; 2D [1H-15N]-TROSY spectra of 15N-labeled HasB^(Sm, peri) or TonB^(Ec, peri) alone and upon addition of the unlabeled ExbD periplasmic domain; 293 K. The settings on record: both partners purified.

Series [4] deals with the molecule itself. Description: NMR spectra of a disulfide-bridged mutant; NMR fingerprint spectra of the V47C mutants compared with the wild type (Supplementary Fig. 7).
Series [5] concerns the molecule itself. Description: AUC; sedimentation velocity, 100 μM ExbD^(Ec, peri) with 300 μM TonB peptide, 42000 rpm overnight, 50 mM sodium phosphate, 50 mM NaCl, pH 7.0.
The target in series [6] is T2, periplasmic part of TonB from Escherichia coli, residues 34-239 (TonB^(Ec, peri)) (Escherichia coli, UniProt P02929 34-239).
T2 construct: TonB of Escherichia coli, residues 34-239; 15N-labelled in the NMR experiment; not shown: His-tag, N-terminal, cleaved
Description: NMR titration; 2D [1H-15N]-TROSY spectra of 15N-labeled HasB^(Sm, peri) or TonB^(Ec, peri) alone and upon addition of the unlabeled ExbD periplasmic domain; 293 K. The settings on record: both partners purified.

In series [7] the target is B4. The experiment in a line: NMR titration; 2D [1H-15N]-HMQC spectra of 15N-labeled ExbD periplasmic domain with and without the HasB or TonB peptide; 293 K. The settings on record: both partners purified.
In series [8] the target is B1. Description: crystal structure; 2 mM ExbD^(Ec, ΔNIBS) with 10 mM TonB peptide in 50 mM Tris-HCl, 50 mM NaCl, pH 7.0; crystals in 10% w/v glycerol and 3 M ammonium sulfate, 18 °C; 1.5 Å. The settings on record: both partners purified.

T2 sequence (P02929 34-239): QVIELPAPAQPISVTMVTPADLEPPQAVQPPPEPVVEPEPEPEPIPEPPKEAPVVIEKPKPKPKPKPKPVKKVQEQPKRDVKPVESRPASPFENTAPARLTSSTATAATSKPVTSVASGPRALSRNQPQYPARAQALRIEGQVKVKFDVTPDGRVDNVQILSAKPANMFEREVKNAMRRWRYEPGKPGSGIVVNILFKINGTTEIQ

For the molecule B1, the binding result in series [1] is “binds”.

B2: periplasmic domain of ExbD from Serratia marcescens, residues 43-140 (ExbD^(Sm, peri)) (domain or fragment, UniProt V5YUQ0 43-140, looked up)
chain: VDIRVDLPASSAKPQPRPEKPVFLSVKADKQLYVGDQPVNADQLTSVLDQRTQANKETTIFFQADKSVDYETLMSVMDTLRKAGYLKVGLVGMEGAAK
notes: ExbD of Serratia marcescens (Has system), periplasmic domain, residues 43-140; 15N- or 13C,15N-labelled in the NMR samples; also called ExbD^(Sm, peri) wild type (wt); not shown: His-tag, N-terminal, cleaved
For orientation: stoichiometry N means the number of molecules, sites or subunits per partner or assembly. As to B2, the “stoichiometry N” value in series [2] amounted to 2. The binding result in series [3] was “binds”.

B3: ExbD^(Sm, peri) V47C (domain or fragment)
chain: VDIRCDLPASSAKPQPRPEKPVFLSVKADKQLYVGDQPVNADQLTSVLDQRTQANKETTIFFQADKSVDYETLMSVMDTLRKAGYLKVGLVGMEGAAK
modifications: disulfide bridge between the Cys 47 of the two subunits
notes: ExbD of Serratia marcescens, periplasmic domain, residues 43-140, with V47C; also called disulfide-bridged ExbD^(Sm, peri) V47C mutant; not shown: His-tag, N-terminal, cleaved
Regarding B3, in series [4], the binding result is “binds”.
On to B4, for which the “stoichiometry N” value in series [5] was determined as 2. Moreover, the binding result in series [6] is “binds”.

B5: ExbD^(Ec, peri) V47C (domain or fragment, Escherichia coli, UniProt P0ABV2 43-141, looked up)
chain: VDVKCNLPASTSTPQPRPEKPVYLSVKADNSMFIGNDPVTDETMITALNALTEGKKDTTIFFRADKTVDYETLMKVMDTLHQAGYLKIGLVGEETAKAK
modifications: disulfide bridge between the Cys 47 of the two subunits
notes: ExbD of Escherichia coli, periplasmic domain, residues 43-141, with V47C; not shown: His-tag, N-terminal, cleaved
On to B5, for which the binding result in series [4] is “binds”.

B6: TonB peptide (KKAQPISVTMVTPADLEPPQAKK) (peptide)
peptide: KKAQPISVTMVTPADLEPPQAKK
notes: Probably a synthetic peptide
In the case of B6, the binding result in series [7] and in series [8] was “binds” in each case.
